Where two headings read alike, the source gives them in different places.
T1: Tae4 effector protein from Salmonella typhimurium (full-length, hexahistidine-tagged) (Salmonella typhimurium, UniProt Q93IS4 1-161)
T1 construct: Tae4, Salmonella typhimurium, NP_459275.1, full-length orf; Asn2 to the C-terminal Pro161 modelled in the crystal structure; The single-expression construct was cut out of the bicistronic construct (NcoI/MfeI), so the Tae4 chain is the same in both; No tag removal is described; The crystal for PDB 4J30 held the selenomethionine-substituted complex; also called type-6-secretion amidase effector 4; …
T1 sequence: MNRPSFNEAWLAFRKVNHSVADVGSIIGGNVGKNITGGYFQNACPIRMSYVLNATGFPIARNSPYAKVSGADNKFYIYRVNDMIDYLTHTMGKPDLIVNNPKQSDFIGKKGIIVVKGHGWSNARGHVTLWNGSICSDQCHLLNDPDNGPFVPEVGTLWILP

T2: Tae4 effector protein from Salmonella typhimurium (full-length, hexahistidine-tagged) (Salmonella typhimurium, UniProt Q93IS4 1-161)
T2 chain: T1 sequence

B1: Tai4 immunity protein from Salmonella typhimurium, wild type, periplasmic (C-terminal hexahistidine tag) (natural protein)
chain: QEALTTQYSQSELLKNWALSHCLALVYKDDVVKNDARATASAYLEYGKQSVEIYHEIDEIAKKYSGLKYNGSISSDFNTMKCIDFIHDRELNELIKRRVEK
notes: Tai4, Salmonella typhimurium, NP_459276.1; Dimer in solution (cross-linking, static light scattering); the calculated dimer mass of 25.95 kDa fits the cut, tagged protein; also called Tai4wt; wild-type Tai4
B2: Tai4 immunity protein from Salmonella typhimurium, untagged, co-expressed with Tae4 (as in the Tae4/Tai4 complex) (natural protein)
chain: B1 chain
notes: Tai4, Salmonella typhimurium, NP_459276.1; Gln27 to Lys127 modelled in the crystal structure; Homodimer at the centre of the Tae4_2/Tai4_2 heterotetramer; The crystal for PDB 4J30 held the selenomethionine-substituted complex

Columns and labels:
[1] = molecular target: Tae4-ATTO 488 (fluorescently labelled Tae4 from Salmonella typhimurium) (Salmonella typhimurium); experiment: stopped-flow fluorescence kinetics; dissociation: preassembled Tae4-ATTO 488/Tai4 complex (0.1 µM wild type or 0.2 µM mutant) chased with 1 or 2 µM unlabelled Tae4; apparent dissociation rate constant; limit for the wild type from simulated traces; KD calculated as koff/kon with the kon of the direct mixing
[2] = molecular target: Tae4-ATTO 488 (fluorescently labelled Tae4 from Salmonella typhimurium) (Salmonella typhimurium); experiment: stopped-flow fluorescence kinetics; association by direct mixing: 0.1 µM Tae4-ATTO 488 with 0.3-1.5 µM Tai4; 293 K; 50 mM MES pH 6.5, 200 mM NaCl; kobs against Tai4 concentration, kon from the slope
[3] = molecular target: Tae4-ATTO 488 (fluorescently labelled Tae4 from Salmonella typhimurium) (Salmonella typhimurium); experiment: stopped-flow fluorescence kinetics; dissociation: preassembled Tae4-ATTO 488/Tai4 complex (0.1 µM wild type or 0.2 µM mutant) chased with 1 or 2 µM unlabelled Tae4; apparent dissociation rate constant; limit for the wild type from simulated traces; KD calculated as koff/kon with the kon of the direct mixing; remark: listed apart in the source
[4] = molecular target: T1, Tae4 effector protein from Salmonella …; experiment: stopped-flow fluorescence kinetics; association by intrinsic tryptophan fluorescence (excitation 280 nm): 1.8 µM unlabelled Tae4 with 2.3-9.9 µM wild-type Tai4; 50 mM MES pH 6.5, 200 mM NaCl; data not shown; settings: both partners purified
[5] = molecular target: T2, Tae4 effector protein from Salmonella …; experiment: ITC
[6] = molecular target: T1, Tae4 effector protein from Salmonella …; experiment: ITC; 29.5 µM wild-type Tai4 titrated into 2.17 µM Tae4 in the cell; 293 K; 50 mM MES pH 6.5, 200 mM NaCl; single-site binding model; settings: both partners purified
[7] = molecular target: the molecule itself; experiment: cross-linking; glutaraldehyde, 0.25 µg/µl protein in 20 mM HEPES pH 7.5, 37°C, aliquots 0 to 60 min, Coomassie-stained SDS-PAGE
[8] = molecular target: T1, Tae4 effector protein from Salmonella …; experiment: SEC-MALS; Superdex200 10/300 GL with multiangle light scattering detector; 50 mM Tris-HCl pH 8.0, 200 mM NaCl; 100 µM protein, 40 µl applied, 0.5 ml/min; settings: both partners purified

Row | Molecule | Kd [1] | koff [1] | kon [2] | also measured
1 | Tai4 immunity protein from Salmonella typhimurium, wild type, periplasmic (C-terminal hexahistidine tag) (from UniProt Q8ZRL5 27-127) (natural protein) | < 0.28 nM | < 0.0007 s⁻¹ | 2.48e+06 M⁻¹ s⁻¹ | koff [3]: 7e-05 to 0.0007 s⁻¹
2 | Tai4(E71A_S98A) variant of the immunity protein from Salmonella typhimurium (C-terminal hexahistidine tag) (natural protein) | 255 nM | 0.716 s⁻¹ | 2.81e+06 M⁻¹ s⁻¹ | –
3 | B1 | – | – | – | kon [4]: 2.57e+06 ± 233000 M⁻¹ s⁻¹; Kd [5]: 1.28 nM; Kd [6]: < 1 nM; stoichiometry N [7]: 2
4 | B2 | – | – | – | stoichiometry N [8]: 1 Tai4 per Tae4 (2:2)
